From paper PMC12170185

Legend:
Assay in all cases: fluorescence anisotropy
Details in all cases: FA: 25 mM HEPES pH 7.45, 150 mM NaCl, 5% glycerol, 10 nM probe, temperature not stated, EMSA: 250 nM probe in 25 mM HEPES pH 7.45, 100 mM NaCl
UPF2 MIF4G-D3 = UPF2 MIF4G-D3 (UniProt Q9HAU5)
UPF2L = UPF2L (UniProt Q9HAU5)
UPF2 MIF4G-D2-3 = UPF2 MIF4G-D2-3 (UniProt Q9HAU5)
UPF2 MIF4G-D1-2 = UPF2 MIF4G-D1-2 (UniProt Q9HAU5)
UPF2 MIF4G-D1 = UPF2 MIF4G-D1 (UniProt Q9HAU5)
UPF2 MIF4G-D2 = UPF2 MIF4G-D2 (UniProt Q9HAU5)
Sequence of UPF2 MIF4G-D2 (Q9HAU5 455-757): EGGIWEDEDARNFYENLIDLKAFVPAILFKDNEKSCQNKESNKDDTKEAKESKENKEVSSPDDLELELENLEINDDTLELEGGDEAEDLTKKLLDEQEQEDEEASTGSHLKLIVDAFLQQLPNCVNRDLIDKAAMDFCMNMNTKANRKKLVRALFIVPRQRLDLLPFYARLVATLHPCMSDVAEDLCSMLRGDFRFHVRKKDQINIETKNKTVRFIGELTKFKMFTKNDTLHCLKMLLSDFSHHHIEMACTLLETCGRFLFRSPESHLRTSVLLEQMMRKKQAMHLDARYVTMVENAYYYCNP

Sequence of UPF2L (Q9HAU5 121-1227): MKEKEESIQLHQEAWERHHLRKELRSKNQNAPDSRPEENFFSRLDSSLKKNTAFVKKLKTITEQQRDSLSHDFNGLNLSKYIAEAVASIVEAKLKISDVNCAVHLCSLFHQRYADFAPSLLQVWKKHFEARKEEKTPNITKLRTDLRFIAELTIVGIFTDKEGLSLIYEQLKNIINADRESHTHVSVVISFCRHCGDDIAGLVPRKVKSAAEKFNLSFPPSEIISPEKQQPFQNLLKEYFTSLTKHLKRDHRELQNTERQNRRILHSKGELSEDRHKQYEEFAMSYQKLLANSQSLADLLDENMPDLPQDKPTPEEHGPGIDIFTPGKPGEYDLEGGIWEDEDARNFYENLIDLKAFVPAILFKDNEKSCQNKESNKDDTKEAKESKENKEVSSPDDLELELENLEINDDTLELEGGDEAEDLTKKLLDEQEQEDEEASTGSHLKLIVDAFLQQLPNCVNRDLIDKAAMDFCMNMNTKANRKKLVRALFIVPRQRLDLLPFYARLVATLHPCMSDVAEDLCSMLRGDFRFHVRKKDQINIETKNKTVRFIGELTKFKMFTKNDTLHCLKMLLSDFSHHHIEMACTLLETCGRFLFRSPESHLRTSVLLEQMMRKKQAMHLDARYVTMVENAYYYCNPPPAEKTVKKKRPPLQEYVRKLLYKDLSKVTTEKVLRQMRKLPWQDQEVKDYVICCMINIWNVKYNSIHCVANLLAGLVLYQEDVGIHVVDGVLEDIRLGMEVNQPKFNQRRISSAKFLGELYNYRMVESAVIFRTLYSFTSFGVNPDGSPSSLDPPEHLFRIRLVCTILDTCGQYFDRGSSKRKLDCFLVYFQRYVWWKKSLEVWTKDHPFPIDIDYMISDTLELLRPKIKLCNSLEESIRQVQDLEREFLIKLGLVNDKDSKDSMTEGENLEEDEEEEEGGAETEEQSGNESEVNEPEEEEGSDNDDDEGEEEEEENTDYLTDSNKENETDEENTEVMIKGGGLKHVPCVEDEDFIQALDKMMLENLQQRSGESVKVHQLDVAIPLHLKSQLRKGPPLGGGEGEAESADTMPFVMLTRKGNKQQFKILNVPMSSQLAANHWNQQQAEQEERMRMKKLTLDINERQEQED
Sequence of UPF2 MIF4G-D3 (Q9HAU5 761-1054): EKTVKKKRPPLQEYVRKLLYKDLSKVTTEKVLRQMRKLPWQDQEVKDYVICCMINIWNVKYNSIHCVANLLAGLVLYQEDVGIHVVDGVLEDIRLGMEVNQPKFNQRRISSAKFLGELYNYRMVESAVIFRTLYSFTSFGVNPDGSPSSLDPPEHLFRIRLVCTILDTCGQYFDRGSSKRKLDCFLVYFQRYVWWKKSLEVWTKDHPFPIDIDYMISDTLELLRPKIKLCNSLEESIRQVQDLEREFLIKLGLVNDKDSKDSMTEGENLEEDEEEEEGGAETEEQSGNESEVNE
Sequence of UPF2 MIF4G-D2-3 (Q9HAU5 455-1054): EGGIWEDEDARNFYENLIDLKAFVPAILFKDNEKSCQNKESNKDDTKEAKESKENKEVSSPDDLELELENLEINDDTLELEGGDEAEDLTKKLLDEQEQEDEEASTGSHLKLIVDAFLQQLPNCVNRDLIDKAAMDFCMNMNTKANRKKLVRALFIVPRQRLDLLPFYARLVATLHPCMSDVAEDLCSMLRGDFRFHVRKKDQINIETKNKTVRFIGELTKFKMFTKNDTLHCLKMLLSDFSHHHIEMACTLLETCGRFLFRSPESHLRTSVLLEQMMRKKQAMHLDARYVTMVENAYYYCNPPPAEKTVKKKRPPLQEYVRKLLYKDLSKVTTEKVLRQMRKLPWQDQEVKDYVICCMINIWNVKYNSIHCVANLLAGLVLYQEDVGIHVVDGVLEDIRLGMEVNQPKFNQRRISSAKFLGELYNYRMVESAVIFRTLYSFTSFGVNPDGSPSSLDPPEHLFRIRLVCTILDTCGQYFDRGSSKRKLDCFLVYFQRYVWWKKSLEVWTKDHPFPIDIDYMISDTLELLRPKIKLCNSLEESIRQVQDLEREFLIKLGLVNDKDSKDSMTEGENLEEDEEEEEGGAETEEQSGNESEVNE
Sequence of UPF2 MIF4G-D1-2 (Q9HAU5 120-757): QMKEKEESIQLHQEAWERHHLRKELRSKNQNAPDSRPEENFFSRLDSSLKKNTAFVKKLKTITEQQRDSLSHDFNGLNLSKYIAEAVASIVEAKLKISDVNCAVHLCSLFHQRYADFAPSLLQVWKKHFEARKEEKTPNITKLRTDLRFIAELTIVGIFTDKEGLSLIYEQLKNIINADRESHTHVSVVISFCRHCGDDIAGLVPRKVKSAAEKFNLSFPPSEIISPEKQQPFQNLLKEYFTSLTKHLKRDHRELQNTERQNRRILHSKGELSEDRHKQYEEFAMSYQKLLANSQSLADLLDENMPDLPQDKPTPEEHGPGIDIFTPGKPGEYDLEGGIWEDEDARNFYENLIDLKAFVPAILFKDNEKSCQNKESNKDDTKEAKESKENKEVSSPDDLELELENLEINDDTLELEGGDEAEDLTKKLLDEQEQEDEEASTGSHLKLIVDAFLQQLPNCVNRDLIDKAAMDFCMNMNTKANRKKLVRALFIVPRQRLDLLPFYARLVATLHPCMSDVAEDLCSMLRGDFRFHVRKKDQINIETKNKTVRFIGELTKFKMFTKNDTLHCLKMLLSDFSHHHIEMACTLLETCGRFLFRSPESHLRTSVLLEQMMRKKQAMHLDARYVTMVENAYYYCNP
Sequence of UPF2 MIF4G-D1 (Q9HAU5 120-486): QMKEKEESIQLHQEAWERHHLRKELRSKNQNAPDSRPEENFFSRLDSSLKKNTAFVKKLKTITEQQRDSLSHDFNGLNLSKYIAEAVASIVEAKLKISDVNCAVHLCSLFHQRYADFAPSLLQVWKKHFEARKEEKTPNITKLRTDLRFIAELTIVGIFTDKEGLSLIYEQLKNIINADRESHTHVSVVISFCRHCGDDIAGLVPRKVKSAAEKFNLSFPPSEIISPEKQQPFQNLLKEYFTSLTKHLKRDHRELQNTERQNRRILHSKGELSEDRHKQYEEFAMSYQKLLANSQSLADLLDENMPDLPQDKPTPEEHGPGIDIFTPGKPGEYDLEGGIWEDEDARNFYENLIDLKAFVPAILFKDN

Substance | Kd (UPF2 MIF4G-D3) [nM] | Kd (UPF2L) [nM] | Kd (UPF2 MIF4G-D2-3) [nM] | Kd (UPF2 MIF4G-D1-2) [nM] | Kd (UPF2 MIF4G-D1) [nM] | Kd (UPF2 MIF4G-D2) [nM]
13 nt PUR ss-RNA | 1280 | 683 |  |  |  | 
13 nt PYR ss-RNA | 529 | 650 |  |  |  | 
24 nt ds-DNA |  | 334 |  |  |  | 
24 nt ds-RNA |  | 454 |  |  |  | 
24 nt ss-DNA |  | 431 |  |  |  | 
24 nt ss-RNA | 694 | 135 | 530 | 784 | 1400 | 3500
